The values that follow come from US20160090427A1 (SAMSUNG ELECTRONICS, published 2016).

Assay [1] has as its target VEGF (R&D systems) (UniProt P15692-4 27-191, limits assumed). Put plainly: SPR (Biacore T100), CM5 chip, VEGF; format unclear in the text. On the procedure: An examination on whether the 8 anti-c-Met/anti-VEGF bispecific antibodies prepared in Example 2 maintains binding affinity to VEGF was conducted using Biacore T100(GE). VEGF (R&D systems) immobilized on the surface of CM5 chip (#BR-1005-30, GE) by amino coupling according to the manufacturer's instructions. About 90˜120 RU of the anti-c-Met/anti-VEGF bispecific antibody was captured, and […] was injected thereto at various concentrations. Then, a solution containing 1M NaCl and 5 mM NaOH was injected thereto to regenerate the surface. The obtained data were fitted using BlAevaluation software (GE Healthcare, Biacore T100 evaluation software), to measure the binding affinity to VEGF.
On the technique in general: Surface plasmon resonance follows binding to a sensor surface in real time, without labels.

Assay [2] has as its target T1, human c-Met/Fc fusion protein (R&D Systems) (human, UniProt P08581 25-932).
T1 construct: Bought reagent; also called c-Met-Fc (#358-MT/CF, R&D Systems); human c-Met/Fc protein; not shown: Fc part of the bought fusion protein
The assay is described as follows: SPR (Biacore T100), bispecific captured by human Fab binder on CM5 chip, c-Met-Fc injected. On the procedure: An examination on whether the anti-c-Met/anti-VEGF bispecific antibody maintains binding affinity to c-Met was conducted using Biacore T100(GE). A human Fab binding agent (GE Healthcare) was immobilized onto a CM5 chip (#BR-1005-30, GE) according to the manufacturer's instructions. About 90˜120 RU of the anti-c-Met/anti-VEGF bispecific antibody was captured, and c-Met-Fc (#358-MT/CF, R&D Systems) was injected thereto at various concentrations. Then, 10 mM Glycine-HCl (pH 2.1) solution was injected thereto to regenerate the surface. The obtained data were fitted using BlAevaluation software (GE Healthcare, Biacore T100 evaluation software), to measure the binding affinity to c-Met.

T1 sequence (P08581 25-932 limits assumed): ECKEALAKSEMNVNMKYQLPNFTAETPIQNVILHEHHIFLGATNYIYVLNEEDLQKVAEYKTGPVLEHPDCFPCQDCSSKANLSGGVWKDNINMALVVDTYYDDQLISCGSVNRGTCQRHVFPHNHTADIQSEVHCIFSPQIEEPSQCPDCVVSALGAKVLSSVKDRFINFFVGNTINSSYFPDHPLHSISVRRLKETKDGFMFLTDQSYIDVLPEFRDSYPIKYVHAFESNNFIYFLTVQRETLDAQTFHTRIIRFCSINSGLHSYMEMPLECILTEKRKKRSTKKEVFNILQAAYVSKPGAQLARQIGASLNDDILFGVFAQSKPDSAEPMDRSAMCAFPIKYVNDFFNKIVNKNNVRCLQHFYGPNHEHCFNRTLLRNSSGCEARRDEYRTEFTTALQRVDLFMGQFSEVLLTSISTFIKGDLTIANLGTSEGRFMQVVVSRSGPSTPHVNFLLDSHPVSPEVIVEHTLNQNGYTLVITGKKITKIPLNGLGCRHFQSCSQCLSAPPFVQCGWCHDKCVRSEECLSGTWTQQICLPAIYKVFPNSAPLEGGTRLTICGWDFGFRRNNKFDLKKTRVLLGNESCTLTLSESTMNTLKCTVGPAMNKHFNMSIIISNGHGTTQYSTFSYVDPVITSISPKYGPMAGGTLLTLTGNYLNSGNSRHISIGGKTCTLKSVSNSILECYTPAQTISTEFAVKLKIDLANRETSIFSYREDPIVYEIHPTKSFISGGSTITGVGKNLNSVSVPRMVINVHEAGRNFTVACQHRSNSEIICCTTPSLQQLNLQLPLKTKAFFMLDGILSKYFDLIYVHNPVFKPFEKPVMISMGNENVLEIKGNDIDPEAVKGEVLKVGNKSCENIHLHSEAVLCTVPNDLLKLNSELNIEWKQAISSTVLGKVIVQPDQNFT
VEGF (R&D systems), sequence (P15692 other isoform, or with tags, fused parts or gaps limits assumed): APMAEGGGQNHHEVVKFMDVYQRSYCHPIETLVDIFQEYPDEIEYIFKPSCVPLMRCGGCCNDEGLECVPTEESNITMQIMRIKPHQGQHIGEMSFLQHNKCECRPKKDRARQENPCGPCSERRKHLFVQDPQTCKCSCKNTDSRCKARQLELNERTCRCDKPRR

B1: MV-15 anti-c-Met/anti-VEGF bispecific antibody (bispecific antibody, human IgG2, kappa)
heavy: EVQLVESGGGLVQPGGSLRLSCAASGFTFTDYYMSWVRQAPGKGLEWLGFIRNKANGYTTEYSASVKGRFTISRDNSKNTLYLQMNSLRAEDTAVYYCARDNWFAYWGQGTLVTVSSASTKGPSVFPLAPCSRSTSESTAALGCLVKDYFPEPVTVSWNSGALTSGVHTFPAVLQSSGLYSLSSVVTVPSSNFGTQTYTCNVDHKPSNTKVDKTVERKCCVECPPCPAPPVAGPSVFLFPPKPKDTLMISRTPEVTCVVVDVSHEDPEVQFNWYVDGVEVHNAKTKPREEQFNSTFRVVSVLTVVHQDWLNGKEYKCKVSNKGLPAPIEKTISKTKGQPREPQVYTLPPSREEMTKNQVSLTCLVKGFYPSDIAVEWESNGQPENNYKTTPPMLDSDGSFFLYSKLTVDKSRWQQGNVFSCSVMHEALHNHYTQKSLSLSPGKGGGGSGGGGSEVQLLESGGGLVQPGGSLRLSCAASGFTFSGYAMSWVRQAPGKGLEWVSSIYSSSGSKYYADSVKGRFTISRDNSKNTLYLQMNSLRAEDTAVYYCARASSTCTRTWCSYDDAMDVWGQGTLVTVSSGGGGSGGGGSGGGGSQSVLTQPPSASGTPGQRVTISCTGSSSNIGNNAVTWYQQLPGTAPKLLIYDDSHRPSGVPDRFSGSKSGTSASLAISGLRSEDEADYYCGTWDYSLSGYVFGGGTKLTVLG
light: DIQMTQSPSSLSASVGDRVTITCKSSQSLLASGNQNNYLAWYQQKPGKAPKMLIIWASTRVSGVPSRFSGSGSGTDFTLTISSLQPEDFATYYCQQSYSRPYTFGQGTKVEIKRTVAAPSVFIFPPSDEQLKSGTASVVCLLNNFYPREAKVQWKVDNALQSGNSQESVTEQDSKDSTYSLSSTLTLSKADYEKHKVYACEVTHQGLSSPVTKSFNRGEC
notes: This is an inference
The term Kd denotes a measure of binding affinity in units of concentration. A low value points to a tighter complex. As for B1, the results for the Kd in assay [1] and in assay [2] were 6.83 nM and 0.1 nM, respectively.

B2: MV-17 anti-c-Met/anti-VEGF bispecific antibody (bispecific antibody, human IgG2, kappa)
heavy: EVQLVESGGGLVQPGGSLRLSCAASGFTFTDYYMSWVRQAPGKGLEWLGFIRNKANGYTTEYSASVKGRFTISRDNSKNTLYLQMNSLRAEDTAVYYCARDNWFAYWGQGTLVTVSSASTKGPSVFPLAPCSRSTSESTAALGCLVKDYFPEPVTVSWNSGALTSGVHTFPAVLQSSGLYSLSSVVTVPSSNFGTQTYTCNVDHKPSNTKVDKTVERKCCVECPPCPAPPVAGPSVFLFPPKPKDTLMISRTPEVTCVVVDVSHEDPEVQFNWYVDGVEVHNAKTKPREEQFNSTFRVVSVLTVVHQDWLNGKEYKCKVSNKGLPAPIEKTISKTKGQPREPQVYTLPPSREEMTKNQVSLTCLVKGFYPSDIAVEWESNGQPENNYKTTPPMLDSDGSFFLYSKLTVDKSRWQQGNVFSCSVMHEALHNHYTQKSLSLSPGKGGGGSGGGGSEVQLLESGGGLVQPGGSLRLSCAASGFTFSNYDMSWVRQAPGKGLEWVSGIYPNGGSKYYADSVKGRFTISRDNSKNTLYLQMNSLRAEDTAVYYCARALRQCQRYWCSYADGMDVWGQGTLVTVSSGGGGSGGGGSGGGGSQSVLTQPPSASGTPGQRVTISCTGSSSNIGSNYVSWYQQLPGTAPKLLIYADSQRPSGVPDRFSGSKSGTSASLAISGLRSEDEADYYCGTWDYSLSGYVLGGGTKLTVLG
light: DIQMTQSPSSLSASVGDRVTITCKSSQSLLASGNQNNYLAWYQQKPGKAPKMLIIWASTRVSGVPSRFSGSGSGTDFTLTISSLQPEDFATYYCQQSYSRPYTFGQGTKVEIKRTVAAPSVFIFPPSDEQLKSGTASVVCLLNNFYPREAKVQWKVDNALQSGNSQESVTEQDSKDSTYSLSSTLTLSKADYEKHKVYACEVTHQGLSSPVTKSFNRGEC
Take B2: the Kd in assay [1] was determined as 5.76 nM; in assay [2] it was 0.09 nM.

B3: MV-18 anti-c-Met/anti-VEGF bispecific antibody (bispecific antibody, human IgG2, kappa)
heavy: EVQLVESGGGLVQPGGSLRLSCAASGFTFTDYYMSWVRQAPGKGLEWLGFIRNKANGYTTEYSASVKGRFTISRDNSKNTLYLQMNSLRAEDTAVYYCARDNWFAYWGQGTLVTVSSASTKGPSVFPLAPCSRSTSESTAALGCLVKDYFPEPVTVSWNSGALTSGVHTFPAVLQSSGLYSLSSVVTVPSSNFGTQTYTCNVDHKPSNTKVDKTVERKCCVECPPCPAPPVAGPSVFLFPPKPKDTLMISRTPEVTCVVVDVSHEDPEVQFNWYVDGVEVHNAKTKPREEQFNSTFRVVSVLTVVHQDWLNGKEYKCKVSNKGLPAPIEKTISKTKGQPREPQVYTLPPSREEMTKNQVSLTCLVKGFYPSDIAVEWESNGQPENNYKTTPPMLDSDGSFFLYSKLTVDKSRWQQGNVFSCSVMHEALHNHYTQKSLSLSPGKGGGGSGGGGSEVQLLESGGGLVQPGGSLRLSCAASGFTFSDYYMSWVRQAPGKGLEWVSAIYSGGGSIYYADSVKGRFTISRDNSKNTLYLQMNSLRAEDTAVYYCARDVQWNKAPRFDYWGQGTLVTVSSGGGGSGGGGSGGGGSQSVLTQPPSASGAPGQRVTISCSGSSSNIGSNDVSWYQQLPGTAPKLLIYADSNRPSGVPDRFSGSKSGTSASLAISGLRSEDEADYYCGSWDYSLSGYVFGGGTKLTVLG
light: DIQMTQSPSSLSASVGDRVTITCKSSQSLLASGNQNNYLAWYQQKPGKAPKMLIIWASTRVSGVPSRFSGSGSGTDFTLTISSLQPEDFATYYCQQSYSRPYTFGQGTKVEIKRTVAAPSVFIFPPSDEQLKSGTASVVCLLNNFYPREAKVQWKVDNALQSGNSQESVTEQDSKDSTYSLSSTLTLSKADYEKHKVYACEVTHQGLSSPVTKSFNRGEC
Regarding B3, the Kd turned out to be 4.23 nM in assay [1] and 0.05 nM in assay [2].

B4: MV-19 anti-c-Met/anti-VEGF bispecific antibody (bispecific antibody, human IgG2, kappa)
heavy: EVQLVESGGGLVQPGGSLRLSCAASGFTFTDYYMSWVRQAPGKGLEWLGFIRNKANGYTTEYSASVKGRFTISRDNSKNTLYLQMNSLRAEDTAVYYCARDNWFAYWGQGTLVTVSSASTKGPSVFPLAPCSRSTSESTAALGCLVKDYFPEPVTVSWNSGALTSGVHTFPAVLQSSGLYSLSSVVTVPSSNFGTQTYTCNVDHKPSNTKVDKTVERKCCVECPPCPAPPVAGPSVFLFPPKPKDTLMISRTPEVTCVVVDVSHEDPEVQFNWYVDGVEVHNAKTKPREEQFNSTFRVVSVLTVVHQDWLNGKEYKCKVSNKGLPAPIEKTISKTKGQPREPQVYTLPPSREEMTKNQVSLTCLVKGFYPSDIAVEWESNGQPENNYKTTPPMLDSDGSFFLYSKLTVDKSRWQQGNVFSCSVMHEALHNHYTQKSLSLSPGKGGGGSGGGGSEVQLLESGGGLVQPGGSLRLSCAASGFTFSSYSMSWVRQAPGKGLEWVSGISHGGGNKYYADSVKGRFTISRDNSKNTLYLQMNSLRAEDTAVYYCARDLRANNDTGFDYWGQGTLVTVSSGGGGSGGGGSGGGGTQSVLTQPPSSSGTPGQRVTISCTGSSSNIGSNAVTWYQQLPGTAPKLLIYDDNHRPSGVPDRFSGSKSGTSASLAISGLRSEDEADYYCGAWDYSLNAYVFGGGTKLTVLG
light: DIQMTQSPSSLSASVGDRVTITCKSSQSLLASGNQNNYLAWYQQKPGKAPKMLIIWASTRVSGVPSRFSGSGSGTDFTLTISSLQPEDFATYYCQQSYSRPYTFGQGTKVEIKRTVAAPSVFIFPPSDEQLKSGTASVVCLLNNFYPREAKVQWKVDNALQSGNSQESVTEQDSKDSTYSLSSTLTLSKADYEKHKVYACEVTHQGLSSPVTKSFNRGEC
For B4, the Kd in assay [1] stood at 1 nM; in assay [2], 0.3 nM.

B5: MV-16 anti-c-Met/anti-VEGF bispecific antibody (bispecific antibody, human IgG2, kappa)
heavy: EVQLVESGGGLVQPGGSLRLSCAASGFTFTDYYMSWVRQAPGKGLEWLGFIRNKANGYTTEYSASVKGRFTISRDNSKNTLYLQMNSLRAEDTAVYYCARDNWFAYWGQGTLVTVSSASTKGPSVFPLAPCSRSTSESTAALGCLVKDYFPEPVTVSWNSGALTSGVHTFPAVLQSSGLYSLSSVVTVPSSNFGTQTYTCNVDHKPSNTKVDKTVERKCCVECPPCPAPPVAGPSVFLFPPKPKDTLMISRTPEVTCVVVDVSHEDPEVQFNWYVDGVEVHNAKTKPREEQFNSTFRVVSVLTVVHQDWLNGKEYKCKVSNKGLPAPIEKTISKTKGQPREPQVYTLPPSREEMTKNQVSLTCLVKGFYPSDIAVEWESNGQPENNYKTTPPMLDSDGSFFLYSKLTVDKSRWQQGNVFSCSVMHEALHNHYTQKSLSLSPGKGGGGSGGGGSEVQLLESGGGLVQTGGSLRLSCAASGFTFSDYAMSWVRQAPGKGLEWVSSIYPGSGSKYYADSVKGRFAISRDNSKNTLYLQMNSLRAEDTAVYYCARDAWFRGHNVFDYWGQGTLVTVSSGGGGSGGGGSGGGGSQSVLTQPPSASGTPGQRVTISCTGSSSNIGSNNVTWYQQLPGTAPKLLIYSDSHRPSGVPDRFSGSKSGTSASLAISGLQSEDEADYYCGSWDYSLSAYVFGGGTKLTVLG
light: DIQMTQSPSSLSASVGDRVTITCKSSQSLLASGNQNNYLAWYQQKPGKAPKMLIIWASTRVSGVPSRFSGSGSGTDFTLTISSLQPEDFATYYCQQSYSRPYTFGQGTKVEIKRTVAAPSVFIFPPSDEQLKSGTASVVCLLNNFYPREAKVQWKVDNALQSGNSQESVTEQDSKDSTYSLSSTLTLSKADYEKHKVYACEVTHQGLSSPVTKSFNRGEC
As to B5, the Kd in assay [1] is 14.8 nM; in assay [2], 0.21 nM.
